# Laboratory results from the Human Domainome abundance scans (Beltran et al. 2025).
# ± gives the uncertainty stated by the source.
# Test: abundance fitness (aPCA) (normalised: wild type 0, dead -1); higher = more abundant; growth selection in yeast, the domain comes from the species named
# Settings: Homo sapiens
row,Substance,abundance fitness
1,"Scaffold attachment factor B2 K44L, Q14151",-0.256 ± 0.11
2,"Scaffold attachment factor B2 K44M, Q14151",-0.379 ± 0.14
3,"Scaffold attachment factor B2 K44N, Q14151",-0.27 ± 0.13
4,"Scaffold attachment factor B2 K44P, Q14151",-0.509 ± 0.088
5,"Scaffold attachment factor B2 K44Q, Q14151",-0.1 ± 0.18
6,"Scaffold attachment factor B2 K44R, Q14151",-0.06 ± 0.071
7,"Scaffold attachment factor B2 K44S, Q14151",-0.183 ± 0.083
8,"Scaffold attachment factor B2 K44T, Q14151",-0.347 ± 0.1
9,"Scaffold attachment factor B2 K44V, Q14151",-0.221 ± 0.084
10,"Scaffold attachment factor B2 K44W, Q14151",-0.508 ± 0.081
11,"Scaffold attachment factor B2 K44Y, Q14151",-0.494 ± 0.15
12,"Scaffold attachment factor B2 K53A, Q14151",-0.516 ± 0.08
13,"Scaffold attachment factor B2 K53C, Q14151",-0.368 ± 0.081
14,"Scaffold attachment factor B2 K53D, Q14151",-0.716 ± 0.22
15,"Scaffold attachment factor B2 K53E, Q14151",-0.136 ± 0.091
16,"Scaffold attachment factor B2 K53F, Q14151",-0.445 ± 0.13
17,"Scaffold attachment factor B2 K53G, Q14151",-0.473 ± 0.076
18,"Scaffold attachment factor B2 K53L, Q14151",-0.326 ± 0.078
19,"Scaffold attachment factor B2 K53M, Q14151",-0.338 ± 0.11
20,"Scaffold attachment factor B2 K53N, Q14151",-0.463 ± 0.14
21,"Scaffold attachment factor B2 K53P, Q14151",-0.204 ± 0.099
22,"Scaffold attachment factor B2 K53Q, Q14151",-0.274 ± 0.12
23,"Scaffold attachment factor B2 K53R, Q14151",-0.047 ± 0.085
24,"Scaffold attachment factor B2 K53T, Q14151",-0.352 ± 0.11
25,"Scaffold attachment factor B2 K53V, Q14151",-0.577 ± 0.083
26,"Scaffold attachment factor B2 K53W, Q14151",-0.39 ± 0.11
27,"Scaffold attachment factor B2 K53Y, Q14151",-0.054 ± 0.43
28,"Scaffold attachment factor B2 K61A, Q14151",0.022 ± 0.084

row,Substance,abundance fitness
1,"Scaffold attachment factor B2 K61C, Q14151",-0.303 ± 0.15
2,"Scaffold attachment factor B2 K61D, Q14151",-0.082 ± 0.17
3,"Scaffold attachment factor B2 K61G, Q14151",-0.015 ± 0.1
4,"Scaffold attachment factor B2 K61H, Q14151",-0.128 ± 0.11
5,"Scaffold attachment factor B2 K61L, Q14151",-0.282 ± 0.083
6,"Scaffold attachment factor B2 K61M, Q14151",-0.186 ± 0.11
7,"Scaffold attachment factor B2 K61N, Q14151",-0.002 ± 0.095
8,"Scaffold attachment factor B2 K61P, Q14151",-0.203 ± 0.13
9,"Scaffold attachment factor B2 K61Q, Q14151",-0.072 ± 0.096
10,"Scaffold attachment factor B2 K61R, Q14151",-0.184 ± 0.095
11,"Scaffold attachment factor B2 K61S, Q14151",-0.359 ± 0.091
12,"Scaffold attachment factor B2 K61T, Q14151",-0.22 ± 0.17
13,"Scaffold attachment factor B2 K61V, Q14151",-0.094 ± 0.095
14,"Scaffold attachment factor B2 K61W, Q14151",-0.357 ± 0.1
15,"Scaffold attachment factor B2 K61Y, Q14151",-0.792 ± 0.32
16,"Scaffold attachment factor B2 K62C, Q14151",-0.303 ± 0.12
17,"Scaffold attachment factor B2 K62D, Q14151",-0.123 ± 0.13
18,"Scaffold attachment factor B2 K62E, Q14151",-0.002 ± 0.1
19,"Scaffold attachment factor B2 K62F, Q14151",-0.385 ± 0.1
20,"Scaffold attachment factor B2 K62G, Q14151",-0.115 ± 0.07
21,"Scaffold attachment factor B2 K62H, Q14151",-0.083 ± 0.15
22,"Scaffold attachment factor B2 K62L, Q14151",-0.212 ± 0.11
23,"Scaffold attachment factor B2 K62M, Q14151",-0.288 ± 0.19
24,"Scaffold attachment factor B2 K62N, Q14151",-0.246 ± 0.14
25,"Scaffold attachment factor B2 K62P, Q14151",-0.407 ± 0.2
26,"Scaffold attachment factor B2 K62Q, Q14151",-0.125 ± 0.13
27,"Scaffold attachment factor B2 K62R, Q14151",-0.075 ± 0.078
